Experimental data published in patent US20210388105A1 (ELPISCIENCE SUZHOU BIOPHARMA, published 2021).
Substitutions are numbered along the chain they refer to.

T1: KW27-4 (human CD39 mutant, C-terminal EGFP) (human, UniProt P49961 1-510)
T1 construct: expressed on HEK293F cells; not shown: C-terminal EGFP fusion (vector pCMV3-GFPSpark)
T1 chain: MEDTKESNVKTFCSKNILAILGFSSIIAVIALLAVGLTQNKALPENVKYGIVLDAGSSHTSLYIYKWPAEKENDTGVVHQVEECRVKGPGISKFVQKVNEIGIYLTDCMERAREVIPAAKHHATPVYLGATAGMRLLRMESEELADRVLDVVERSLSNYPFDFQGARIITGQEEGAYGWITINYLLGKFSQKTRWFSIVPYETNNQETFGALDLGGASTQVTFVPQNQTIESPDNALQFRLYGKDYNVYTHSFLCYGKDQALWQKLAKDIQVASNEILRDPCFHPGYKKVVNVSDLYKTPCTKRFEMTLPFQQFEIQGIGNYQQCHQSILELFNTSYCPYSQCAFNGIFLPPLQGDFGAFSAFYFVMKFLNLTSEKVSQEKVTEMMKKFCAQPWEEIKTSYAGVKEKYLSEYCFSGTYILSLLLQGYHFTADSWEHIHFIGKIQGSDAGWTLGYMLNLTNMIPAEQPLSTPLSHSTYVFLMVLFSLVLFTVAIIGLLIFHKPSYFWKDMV

T2: KW27-1 (human CD39 mutant, C-terminal EGFP) (human, UniProt P49961 1-510)
T2 construct: expressed on HEK293F cells; not shown: C-terminal EGFP fusion (vector pCMV3-GFPSpark)
T2 chain: T1 chain with V77G, H79Q, A118R, A119S, K120Q, H122Q, A123E, Q444K, G445D

T3: KW27-8 (human CD39 mutant, C-terminal EGFP) (human, UniProt P49961 1-510)
T3 construct: expressed on HEK293F cells; not shown: C-terminal EGFP fusion (vector pCMV3-GFPSpark)
T3 chain: T1 chain with A118R, A119S, K120Q, H122Q, A123E, A273S, N275A, I277S, R279A

T4: KW27-9 (human CD39 mutant, C-terminal EGFP) (human, UniProt P49961 1-510)
T4 construct: expressed on HEK293F cells; not shown: C-terminal EGFP fusion (vector pCMV3-GFPSpark)
T4 chain: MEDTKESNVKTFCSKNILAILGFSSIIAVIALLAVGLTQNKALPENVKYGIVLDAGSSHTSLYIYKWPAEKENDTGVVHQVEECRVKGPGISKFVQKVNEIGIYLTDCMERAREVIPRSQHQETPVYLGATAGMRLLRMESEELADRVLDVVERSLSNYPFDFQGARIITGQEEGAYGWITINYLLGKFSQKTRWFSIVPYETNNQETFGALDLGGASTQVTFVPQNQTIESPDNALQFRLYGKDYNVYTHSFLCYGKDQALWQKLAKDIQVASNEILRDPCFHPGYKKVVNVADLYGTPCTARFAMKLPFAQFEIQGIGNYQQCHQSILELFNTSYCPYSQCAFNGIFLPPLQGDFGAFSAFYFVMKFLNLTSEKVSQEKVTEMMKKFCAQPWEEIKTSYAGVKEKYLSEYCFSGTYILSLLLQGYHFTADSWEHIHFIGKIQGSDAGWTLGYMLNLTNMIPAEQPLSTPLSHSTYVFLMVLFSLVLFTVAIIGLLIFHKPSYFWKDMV

B1: c34 (antibody, V domains shown)
VH: EIQVQQSGPELVKPGASVKVSCKASGYSFTDYNMYWVKQSHGKSLEWIGFIDPYNGYTSYNQKFKGKATLTIDKSSSTAFMHLNSLTSEDSAVYYCAIYGYDDAYYFDYWGQGTTLTVSS
VL: QIVLTQSPAIMSASPGEKVTITCSATSSVSYMHWFRQKPGTSPKLWIYSTSNLASGVPARFSGSGSGTSYSLTISRMAAEDAATYYCQQRITYPFTFGSGTKLEIT
notes: its making is not described; also called chimeric antibody c34
B2: Antibody 9-8B (antibody, V domains shown)
VH: QIQLVQSGPELKKPGETVKISCKASGYTFTHYGMNWVKQAPGKGLKWMGWINTYTGELTYADDFKGRFAFSLETSASTAYLQINNLKNEDTATYFCARRAYYRYDYVMDYWGQGTSVTVSS
VL: DIVMTQSQKFMSTSVGDRVSVTCKASHNVGTNVAWYQQKPGQSPKALIYSASYRYSGVPGRFTGSGSGTDFTLTISNVQSEDLAEYFCHQYNNYPYTFGGGTKLEIK
B3: hu23.H5L5 (antibody, V domains shown)
VH: QVQLVQSGAEVKKPGASVKVSCKASGYNLKDTFLHWVRQAPGQGLEWMGRIDPANGNIKYDPKFQGRVTITADTSANTAYMELISLRSEDTAVYYCANSPYYYGSGYRIFDVWGQGTTVTVSS
VL: QIVLTQSPATLSLSPGERATLSCSAFSSVNYMHWYQQKPGQAPRLLIYTTSNLASGIPTRFSGSGSGTSYTLTISSLEPEDFAVYYCQQRSTYPFTFGQGTKLEIK
notes: humanized c23
B4: c35 (antibody, V domains shown)
VH: EVRLQQSGAELVKPGASVKLSCTASGFNIEDTYVHWMKQRPEQGLEWIGRIDPAIDNSKYDPKFQGKATITAVSSSNTAYLQLSSLTSEDTAVYYCALYDGYNVYAMDYWGQGTSVTVSS
VL: DIVMTQAAFSNPVTLGTSASISCRSSKNLLHSNGITYLYWYLQRPGQSPQLLIYRASTLASGVPNRFSGSESGTDFTLRISRVEAEDVGVYYCAQLLELPHTFGGGTKLEIK
notes: its making is not described; also called chimeric antibody c35
B5: Antibody T895 (antibody, V domains shown)
VH: EVQLQQSGPELVKPGASVKMSCKASGYTFTDYNMHWVKQSHGRTLEWIGYIVPLNGGSTFNQKFKGRATLTVNTSSRTAYMELRSLTSEDSAAYYCARGGTRFAYWGQGTLVTVSA
VL: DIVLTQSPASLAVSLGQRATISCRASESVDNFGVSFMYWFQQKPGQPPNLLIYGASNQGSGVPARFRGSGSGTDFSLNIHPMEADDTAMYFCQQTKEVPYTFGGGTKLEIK
notes: also called 31895

Molecular target: T1, KW27-4 (human CD39 mutant, C-terminal …)
Assay: FACS, mutant-EGFP on HEK293F cells
Procedure: (§1) Briefly, the human CD39 mutants were generated by gene synthesis and then cloned into an expression vector pCMV3-GFPSpark. The vectors containing the validated mutated sequences were prepared and transfected into HEK293F cells. Three days post transfection, the cells were collected to testing EGFP for transgene expression. A range of dosages of antibodies (start from 100 nM, 3-folds dilution, 11 points) were tested on the 20 generated mutants and stained by AlexFluor647 labelled anti-hIgG by FACS. Antibody binding was descripted as relative binding which is derived from AlexFluor647 intensity divided by GFP intensity.

binding result | Binder
binds | B1
binds | B2
binds | B3
binds | B4
binds | B5

Molecular target: T2, KW27-1 (human CD39 mutant, C-terminal …)
Assay: FACS, mutant-EGFP on HEK293F cells
Procedure: as §1

binding result | Binder
binds | B1
binds | B2
binds | B3
binds | B4
binds | B5

Molecular target: T3, KW27-8 (human CD39 mutant, C-terminal …)
Assay: FACS, mutant-EGFP on HEK293F cells
Procedure: as §1

binding result | Binder
binds | B1
binds | B2
binds | B3
binds | B4
binds | B5

Molecular target: T4, KW27-9 (human CD39 mutant, C-terminal …)
Assay: FACS, mutant-EGFP on HEK293F cells
Procedure: as §1

binding result | Binder
binds | B1
binds | B2
binds | B3
binds | B4
binds | B5
